# Data as given in patent publication US20260022175A1 (Chugai, published 2026).
# Positions count from the first letter of the chain named.
# T1: hFcγRIIaH on hFcγRIIaH-expressing Jurkat cells (human, UniProt P12318 34-317)
# T1 sequence (looked up): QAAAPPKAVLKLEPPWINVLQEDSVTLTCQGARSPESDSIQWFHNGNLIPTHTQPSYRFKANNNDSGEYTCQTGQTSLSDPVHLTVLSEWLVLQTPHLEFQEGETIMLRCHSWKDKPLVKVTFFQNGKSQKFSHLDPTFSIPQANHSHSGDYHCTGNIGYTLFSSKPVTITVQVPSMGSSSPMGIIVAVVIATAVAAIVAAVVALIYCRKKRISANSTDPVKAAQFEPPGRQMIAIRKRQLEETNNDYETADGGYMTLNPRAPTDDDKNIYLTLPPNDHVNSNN
# T2: human FcγRIIa H extracellular domain (human, UniProt P12318 34-217)
# T2 construct: extracellular domain; also called hFcγR IIa H
# T2 sequence (looked up): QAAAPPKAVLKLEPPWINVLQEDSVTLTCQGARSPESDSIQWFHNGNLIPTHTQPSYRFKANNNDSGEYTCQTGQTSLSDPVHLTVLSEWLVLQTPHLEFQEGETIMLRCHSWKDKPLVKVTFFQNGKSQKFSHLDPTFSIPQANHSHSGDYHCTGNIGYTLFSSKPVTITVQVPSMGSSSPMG
# T3: human FcγRIIa R extracellular domain (human, UniProt P12318 34-217)
# T3 construct: extracellular domain; also called hFcγR IIa R
# T3 sequence (looked up): T2 sequence (looked up) with H134R
# T4: human FcγRIIb extracellular domain (human, UniProt P31994 43-217)
# T4 construct: extracellular domain; also called hFcγR IIb
# T4 sequence (looked up): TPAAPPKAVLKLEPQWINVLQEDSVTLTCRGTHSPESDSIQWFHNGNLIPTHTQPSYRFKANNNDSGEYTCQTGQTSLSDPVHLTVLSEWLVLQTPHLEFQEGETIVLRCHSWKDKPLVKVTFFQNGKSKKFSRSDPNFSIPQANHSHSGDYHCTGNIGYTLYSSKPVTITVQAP
# B1: H240-Kn120/L73-k0//H240-Hl068/L73-k0 (antibody, human IgG1, kappa)
# heavy 1: QDQLVQSGAEVKKPGASVKVSCKASGFNIKDTYIQWVRQAPGQGLEWMGRIDPLRKQTKYREKFEGRVTITADTSTNTAYMELSSLRSEDTAVYYCVRSGREFDYWGQGTLVTVSSASTKGPSVFPLAPSSKSTSGGTAALGCLVKDYFPEPVTVSWNSGALTSGVHTFPAVLQSSGLYSLSSVVTVPSSSLGTQTYICNVNHKPSNTKVDKKVEPKSCDKTHTCPPCPAPEYYWGPMVFLFPPKPKDTLMISRTPEVTCVVVDVSDEDPEVKFNWYVDGVEVHNAKTKPREEQYNATYRVVSVLTVLHQDWLNGKEYKCKVSNKDLPAPIEKTISKAKGQPREPQVCTLPPSRDELTKNQVSLWCLVKGFYPSDIAVEWESNGQPENNYKTTPPVLDSDGSFFLYSKLTVDKSRWQQGNVFSCSVMHEALHNHYTQKSLSLSP
# heavy 2: QDQLVQSGAEVKKPGASVKVSCKASGFNIKDTYIQWVRQAPGQGLEWMGRIDPLRKQTKYREKFEGRVTITADTSTNTAYMELSSLRSEDTAVYYCVRSGREFDYWGQGTLVTVSSASTKGPSVFPLAPSSKSTSGGTAALGCLVKDYFPEPVTVSWNSGALTSGVHTFPAVLQSSGLYSLSSVVTVPSSSLGTQTYICNVNHKPSNTKVDKKVEPKSCDKTHTCPPCPAPELLGGPSVFLFPPKPKDTLMISRTPEVTCVVVDVSHEEPEVKFNWYVDGVEVHNAKTKPREEQYNSTYRVVSVLTVLHQDWLNGKEYKCKVSNDALPKPIEETISKAKGQPREPQVYTLPPSRCELTKNQVSLSCAVKGFYPSDIAVEWESNGQPENNYKTTPPVLDSDGSFFLVSKLTVDKSRWQQGNVFSCSVMHEALHNHYTQKSLSLSP
# light: DIQMTQSPSSLSASVGDRVTITCRASQDIHKYIAWYQQKPGQAPRLLIQYTSTLQPGVPSRFSGSGSGTDYTFTISSLQPEDIATYYCLQYEQLRTFGGGTKVEIKRTVAAPSVFIFPPSDEQLKSGTASVVCLLNNFYPREAKVQWKVDNALQSGNSQESVTEQDSKDSTYSLSSTLTLSKADYEKHKVYACEVTHQGLSSPVTKSFNRGEC
# notes: also called EGL-ART2; ART2
# B2: H240-Kn456/L73-k0//H240-Hl446/L73-k0 (antibody, human IgG1, kappa)
# heavy 1: B1 heavy 1 with Y233F, Y234Q, T249V, D269E, T306P, D326A, A329M, I331E
# heavy 2: B1 heavy 2 with G235A, T249V, S297A, T306P, K329M, I331E
# light: B1 light
# notes: also called EGL-ART4; ART4
# B3: H240-Kn462/L73-k0//H240-Hl445/L73-k0 (antibody, human IgG1, kappa)
# heavy 1: B1 heavy 1 with Y233F, Y234Q, T249V, D269E, T306P, K325D, D326A
# heavy 2: B1 heavy 2 with G235A, T249V, S297A, T306P, I331D
# light: B1 light
# notes: also called EGL-ART6; ART6
# B4: H240-Kn125/L73-k0//H240-Hl076/L73-k0 (antibody, human IgG1, kappa)
# heavy 1: B1 heavy 1 with Y234Q, D269E, D326A
# heavy 2: B1 heavy 2 with K329M
# light: B1 light
# notes: Anti-human Epiregulin heterodimerized IgG1 Fc variant; also called EGL-ART1; ART1
# Target: hFcγRIIIaV on hFcγRIIIaV-expressing Jurkat cells (human, UniProt P08637 17-254)
# Assay: cell-based or functional assay
# hFcγRIIIaV on hFcγRIIIaV-expressing Jurkat cells, sequence (P08637 17-254, form in doubt): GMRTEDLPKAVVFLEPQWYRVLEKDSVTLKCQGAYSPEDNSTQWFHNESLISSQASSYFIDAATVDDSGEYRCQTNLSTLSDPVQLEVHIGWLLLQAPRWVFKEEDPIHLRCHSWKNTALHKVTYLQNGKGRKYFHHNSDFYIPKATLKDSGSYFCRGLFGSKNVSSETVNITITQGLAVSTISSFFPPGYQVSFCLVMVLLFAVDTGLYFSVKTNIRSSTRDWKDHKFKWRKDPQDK
row,Binder,"EC50 value (hFcγRIIIaV ADCC Reporter Bioassay, Hepa1-6/hEREG target cells)"
1,B1,0.00135 µg/mL
2,B2,0.000789 µg/mL
3,B3,0.0015 µg/mL
4,B4,0.000716 µg/mL

# Target: T1, hFcγRIIaH on hFcγRIIaH-expressing …
# Assay: cell-based or functional assay
row,Binder,"EC50 value (hFcγRIIaH ADCP Reporter Bioassay, Hepa1-6/hEREG target cells)"
1,B1,0.0218 µg/mL
2,B2,0.0432 µg/mL
3,B3,0.0192 µg/mL
4,B4,0.0353 µg/mL

# Target: T5, human FcγRIa extracellular domain (human, UniProt P12314 16-292)
# T5 construct: extracellular domain; also called hFcγR Ia; hFcγRIa
# Assay: SPR Biacore 8K+; KD of G1d divided by KD of this antibody;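 further: antibodies captured on an anti-Fab-kappa streptavidin chip, soluble FcγR ectodomains flowed over, KD by steady-state fit for FcγRIIb and Langmuir kinetic model for the other receptors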
# T5 sequence (P12314 16-292): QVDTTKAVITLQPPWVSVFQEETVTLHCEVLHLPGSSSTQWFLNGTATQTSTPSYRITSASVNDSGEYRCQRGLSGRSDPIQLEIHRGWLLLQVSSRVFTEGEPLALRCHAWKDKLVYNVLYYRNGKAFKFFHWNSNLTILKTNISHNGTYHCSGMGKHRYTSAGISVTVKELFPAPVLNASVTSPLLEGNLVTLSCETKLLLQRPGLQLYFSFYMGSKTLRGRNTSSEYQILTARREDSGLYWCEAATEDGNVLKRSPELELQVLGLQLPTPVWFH
row,Binder,Relative value to KD between G1d and hFcgRs
1,B1,3.4
2,B2,2.9
3,B3,1.2
4,B4,3

# Target: T2, human FcγRIIa H extracellular domain
# Assay: as above
row,Binder,Relative value to KD between G1d and hFcgRs
1,B1,14.7
2,B2,6.3
3,B3,118
4,B4,4.3

# Target: T3, human FcγRIIa R extracellular domain
# Assay: as above
row,Binder,Relative value to KD between G1d and hFcgRs
1,B1,49
2,B2,3.2
3,B3,24.1
4,B4,1.6

# Target: T4, human FcγRIIb extracellular domain
# Assay: as above
row,Binder,Relative value to KD between G1d and hFcgRs
1,B1,22.8
2,B2,0.9
3,B3,3.4
4,B4,0.8

# Target: T6, human FcγRIIIa F extracellular domain (human, UniProt P08637 17-208)
# T6 construct: extracellular domain; also called hFcγR IIIa F
# Assay: as above
# T6 sequence (P08637 17-208): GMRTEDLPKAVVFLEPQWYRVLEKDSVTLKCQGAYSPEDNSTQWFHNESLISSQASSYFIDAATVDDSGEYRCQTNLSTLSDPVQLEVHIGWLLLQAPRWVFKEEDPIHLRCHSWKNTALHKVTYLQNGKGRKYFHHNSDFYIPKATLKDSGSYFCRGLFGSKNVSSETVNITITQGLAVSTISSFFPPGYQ
row,Binder,Relative value to KD between G1d and hFcgRs
1,B1,460
2,B2,2520
3,B3,987
4,B4,1170

# Target: T7, human FcγRIIIa V extracellular domain (human, UniProt P08637 17-208)
# T7 construct: extracellular domain; also called hFcγR IIIa V
# Assay: as above
# T7 sequence (P08637 17-208 F176V limits assumed): as the sequence (P08637 17-208) above, with F160V counted along it
row,Binder,Relative value to KD between G1d and hFcgRs
1,B1,215
2,B2,462
3,B3,322
4,B4,323

# Target: T2, human FcγRIIa H extracellular domain
# Assay: SPR Biacore 8K+; KD for FcγRIIb divided by KD for this FcγR;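 further: antibodies captured on an anti-human Fab kappa SA chip with soluble human FcγR ectodomains flowed over, FcγRIIb KD from steady-state fit, other FcγR KD from Langmuir model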
row,Binder,A/I ratio (KD for FcγRIIb divided by KD for each FcγR)
1,B1,5.8
2,B2,65.2
3,B3,307
4,B4,47.4

# Target: T3, human FcγRIIa R extracellular domain
# Assay: as above
row,Binder,A/I ratio (KD for FcγRIIb divided by KD for each FcγR)
1,B1,13
2,B2,22.5
3,B3,42.4
4,B4,12.4

# Target: T6, human FcγRIIIa F extracellular domain
# Assay: as above
row,Binder,A/I ratio (KD for FcγRIIb divided by KD for each FcγR)
1,B1,68.4
2,B2,9940
3,B3,976
4,B4,4950

# Target: T7, human FcγRIIIa V extracellular domain
# Assay: as above
row,Binder,A/I ratio (KD for FcγRIIb divided by KD for each FcγR)
1,B1,264
2,B2,15000
3,B3,2630
4,B4,11300

# Target: T5, human FcγRIa extracellular domain
# Assay: SPR Biacore 8K+, antibody captured, FcγR as analyte, 1:1 Langmuir model;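 further: antibodies captured on a streptavidin chip through a biotinylated anti-human Fab kappa reagent, with FcγR extracellular domains injected in pH 7.4 phosphate buffer at 25 °C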
# Experimental: (§1) The interaction between the produced antibodies and human FcγRs was analyzed using Biacore 8K+ by the method below. For the running buffer, 50 mM Na-Phosphate, 150 mM NaCl, and 0.05% Tween20 (pH 7.4) was used, and measurement was performed at 25° C. The sensor chip used was a Series S SA chip (GE Healthcare) onto which CaptureSelect Human Fab-kappa Kinetics Biotin Conjugate (Thermo Fisher Scientific) was immobilized. An antibody of interest was captured onto this chip, and each FcγR diluted with the running buffer was allowed to interact with it. The chip was regenerated using 10 mM Glycine-HCl (pH 1.5), and repeatedly used to capture antibodies and perform measurement. The dissociation constants KD (mol/L) of each antibody for FcγRs were calculated using Biacore Insight Evaluation Software, with a steady state affinity model for the dissociation constant for FcγRIIb and a 1:1 Langmuir binding model for the dissociation constants for the other FcγRs (Table 48).
row,Binder,Kd
1,B1,0.0264 nM
2,B2,0.0305 nM
3,B3,0.0737 nM
4,B4,0.0302 nM

# Target: T2, human FcγRIIa H extracellular domain
# Assay: as above
# Experimental: as §1
row,Binder,Kd
1,B1,76.4 nM
2,B2,179 nM
3,B3,9.52 nM
4,B4,264 nM

# Target: T3, human FcγRIIa R extracellular domain
# Assay: as above
# Experimental: as §1
row,Binder,Kd
1,B1,33.8 nM
2,B2,518 nM
3,B3,68.9 nM
4,B4,1010 nM

# Target: T6, human FcγRIIIa F extracellular domain
# Assay: as above
# Experimental: as §1
row,Binder,Kd
1,B1,6.43 nM
2,B2,1.17 nM
3,B3,3 nM
4,B4,2.53 nM

# Target: T7, human FcγRIIIa V extracellular domain
# Assay: as above
# Experimental: as §1
row,Binder,Kd
1,B1,1.67 nM
2,B2,0.775 nM
3,B3,1.11 nM
4,B4,1.11 nM

# Target: T4, human FcγRIIb extracellular domain
# Assay: SPR Biacore 8K+, antibody captured, FcγR as analyte, steady state affinity model
row,Binder,Kd
1,B1,440 nM
2,B2,11700 nM
3,B3,2920 nM
4,B4,12500 nM
